Test results as given in publication PMC4072508, “Genome-Wide Prediction and Validation of Peptides That Bind Human Prosurvival Bcl-2 Proteins” (PLoS Computational Biology, 2014).

T1: Bfl-1, Q16548
T1 chain: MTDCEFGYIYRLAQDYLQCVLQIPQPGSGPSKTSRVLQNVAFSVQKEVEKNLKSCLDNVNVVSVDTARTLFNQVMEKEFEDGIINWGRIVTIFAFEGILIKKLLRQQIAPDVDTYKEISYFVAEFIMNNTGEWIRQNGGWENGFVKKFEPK

T2: Bcl-w, Q92843
T2 chain: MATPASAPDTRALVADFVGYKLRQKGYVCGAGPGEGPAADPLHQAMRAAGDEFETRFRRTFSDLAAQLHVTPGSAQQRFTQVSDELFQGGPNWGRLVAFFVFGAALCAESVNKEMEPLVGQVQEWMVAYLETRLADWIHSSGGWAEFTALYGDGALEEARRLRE

T3: Mcl-1, Q07820
T3 chain: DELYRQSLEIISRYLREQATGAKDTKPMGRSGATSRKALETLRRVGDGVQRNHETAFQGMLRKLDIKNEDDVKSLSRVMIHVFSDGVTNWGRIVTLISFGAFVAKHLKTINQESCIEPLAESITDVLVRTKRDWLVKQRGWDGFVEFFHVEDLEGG

T4: Bcl-2, P10415
T4 chain: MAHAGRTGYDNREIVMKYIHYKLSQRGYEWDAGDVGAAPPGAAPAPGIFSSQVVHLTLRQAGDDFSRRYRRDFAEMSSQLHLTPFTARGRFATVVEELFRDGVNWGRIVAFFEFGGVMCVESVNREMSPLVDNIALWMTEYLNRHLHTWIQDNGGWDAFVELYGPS

B1: Bcl-w (natural protein)
chain: MATPASAPDTRALVADFVGYKLRQKGYVCGAGPGEGPAADPLHQAMRAAGDEFETRFRRTFSDLAAQLHVTPGSAQQRFTQVSDELFQGGPNWGRLVAFFVFGAALCAESVNKEMEPLVGQVQEWMVAYLETQLADWIHSSGGWAEFTALYGDGALEEARRLREGNWASVRTVLTGAVALGALVTVGAFFASK
B2: Bfl-1 (natural protein)
chain: MTDCEFGYIYRLAQDYLQCVLQIPQPGSGPSKTSRVLQNVAFSVQKEVEKNLKSCLDNVNVVSVDTARTLFNQVMEKEFEDGIINWGRIVTIFAFEGILIKKLLRQQIAPDVDTYKEISYFVAEFIMNNTGEWIRQNGGWENGFVKKFEPKSGWMTFLEVTGKICEMLSLLKQYC

Experiments:
Bfl-1, Q16548 [1] = target: T1, Bfl-1, Q16548; assay: peptide SPOT array, c-Myc-tagged receptor at 1 uM or 100 nM, anti-c-Myc-Cy3
Bcl-2, P10415 [2] = assay: as above
Target sequence in this assay (P10415 1-217): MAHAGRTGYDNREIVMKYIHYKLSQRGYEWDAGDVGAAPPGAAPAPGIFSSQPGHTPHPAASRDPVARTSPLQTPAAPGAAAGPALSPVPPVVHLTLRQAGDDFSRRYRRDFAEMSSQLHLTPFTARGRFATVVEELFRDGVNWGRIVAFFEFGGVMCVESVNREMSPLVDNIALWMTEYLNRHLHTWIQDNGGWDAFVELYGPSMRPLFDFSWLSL

Bcl-w, Q92843 [3] = target: T2, Bcl-w, Q92843; assay: as above
Mcl-1, Q07820 [4] = target: T3, Mcl-1, Q07820; assay: as above
Bcl-xL, Q07817 [5] = assay: as above
Bfl-1, Q16548 [6] = target: T1, Bfl-1, Q16548; assay: fluorescence polarisation, direct titration of receptor into 10 nM labelled peptide
Bcl-2, P10415 [7] = target: T4, Bcl-2, P10415; assay: as above
Bcl-w, Q92843 [8] = target: T2, Bcl-w, Q92843; assay: as above
Mcl-1, Q07820 [9] = target: T3, Mcl-1, Q07820; assay: as above
Bcl-xL, Q07817 [10] = assay: as above
[11] = target: PXT1 BH3-like peptide (human); assay: fluorescence polarisation; direct binding: 10 nM FAM-labeled peptide, receptor serially diluted; 25°C; 20 mM NaPO4, 50 mM NaCl, 1 mM EDTA, 0.001% Triton X, pH 7.8; single-site binding model

Sequence of Bcl-xL, Q07817 (Q07817 1-209): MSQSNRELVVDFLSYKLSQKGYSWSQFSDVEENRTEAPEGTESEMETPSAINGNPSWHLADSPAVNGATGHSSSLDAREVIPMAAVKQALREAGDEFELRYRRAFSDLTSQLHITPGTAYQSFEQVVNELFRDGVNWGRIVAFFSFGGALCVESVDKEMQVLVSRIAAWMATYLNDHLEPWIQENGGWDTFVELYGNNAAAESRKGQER

Binder | SPOT signal as a fraction of Bim BH3's signal on the same receptor and array (Bfl-1, Q16548 [1]) | SPOT signal as a fraction of Bim BH3's signal on the same receptor and array (Bcl-2, P10415 [2]) | SPOT signal as a fraction of Bim BH3's signal on the same receptor and array (Bcl-w, Q92843 [3]) | SPOT signal as a fraction of Bim BH3's signal on the same receptor and array (Mcl-1, Q07820 [4]) | SPOT signal as a fraction of Bim BH3's signal on the same receptor and array (Bcl-xL, Q07817 [5]) | Kd (Bfl-1, Q16548 [6]) [µM] | Kd (Bcl-2, P10415 [7]) [µM] | Kd (Bcl-w, Q92843 [8]) [µM] | Kd (Mcl-1, Q07820 [9]) [µM] | Kd (Bcl-xL, Q07817 [10]) [µM] | Kd [11] [µM]
FTGNNTAVQELKRVSEQFTATFRRKA [TUBB4Q] | 0.8 | 0.19 | 0.92 | 0.41 | 0.93 | > 4.67 | 1.41 | 2.49 | 1.46 | 2.05 | –
B1 | – | – | – | – | – | – | – | – | – | – | < 0.03
TDENKKVGLALKDLAKQYSDRLECCE [NUB1] | 0.02 | 0.01 | 0.02 | 0.02 | 0.11 | > 4 | 0.562 | > 4 | > 10 | 2.71 | –
FERVEQMCIQIKEVGDRVNYIKRSLQ [TRPM7] | 0.49 | 0.38 | 0.2 | 0.44 | 0.34 | 1.9 | 0.124 | 2.49 | 0.592 | 0.679 | –
EVLAGPLAQRLSHIAEDVGRLVKKSR [ARHGAP4] | 0.4 | 0.1 | 0.94 | 0.28 | 0.4 | > 5.59 | 6.09 | 0.749 | > 2.43 | 3.06 | –
RYRHGAPAEQLRHLADMLTTKWATLQ [PLEKHH1] | 0.56 | 0.28 | 0.81 | 0.41 | 1.44 | > 5.68 | 1.5 | 1.4 | 0.977 | 0.65 | –
B2 | – | – | – | – | – | – | – | – | – | – | < 0.03
EEIIHKLAMQLRHIGDNIDHRMVRED [PXT1] | 0.99 | 0.13 | 0.99 | 0.9 | 0.26 | 0.001 | 0.014 | 0.005 | 0.0009 | 0.008 | –
RYPILENPEILRKTADDFLNRIALTD [CCNH] | 0.02 | 0.04 | 0.24 | 0.02 | 0.06 | > 9.62 | 7.13 | 1.92 | > 4 | > 5.72 | –
SSLSDGLPVHLANIADELTQKKKMFK [AGBL2] | 0.15 | 0.105 | 0.74 | 0.11 | 0.25 | > 4.67 | > 100 | 5.87 | > 5.03 | > 4 | –
NATHEEVVHLLRNAGDEVTITVEYLR [SNTG2] | 0.01 | 0.01 | 0.02 | 0.09 | 0.04 | > 4.07 | > 3.04 | > 6.56 | 0.022 | > 4 | –
KSRLVQQSKALKELADELQERCQRPA [TRIM58] | 0.11 | 0.06 | 0.29 | 0.05 | 0.29 | > 4.67 | 0.975 | 0.361 | > 6.07 | 4.55 | –
